Test results reported in patent US20240252592A1 (TIANJIN INSTITUTE OF PHARMACEUTICAL RESEARCH, published 2024).
Residue numbers refer to the chain shown, from its start. Numbered stars: 1 amine (or outer) side, 2 acyl side, 3 side chain; on linkers, the order of the positions; unused ones are H or OH. Square brackets hold non-standard residues; d marks the D form. Side chains are listed from the residue outwards. Ends that are not written are not given here. * marks the point of attachment. C20 diacid = O=C(O)CCCCCCCCCCCCCCCCCCC(=O)*; C18 diacid = O=C(O)CCCCCCCCCCCCCCCCC(=O)*; γGlu = O=C(O)[C@H](CCC(=O)[*:2])N[*:1]; Palmitoyl = CCCCCCCCCCCCCCCC(=O)*; AEEA = NCCOCCOCC(=O)O; Aib = CC(C)(N)C(=O)O

B1: Compound 3 (peptide)
peptide: HXQGTFTSDKSKYLEERAAKEFVAWLKEGGPSSG
HELM: PEPTIDE1{H.[Aib].Q.G.T.F.T.S.D.K.S.K.Y.L.E.E.R.A.A.K.E.F.V.A.W.L.K.E.G.G.P.S.S.G.[am]}|PEPTIDE2{[CCCCCCCCCCCCCCCC(=O)[*:2]].[gGlu].[gGlu]}$PEPTIDE1,PEPTIDE2,10:R3-3:R2$$$V2.0; N-terminus assumed
SMILES: CCCCCCCCCCCCCCCC(=O)N[C@@H](CCC(=O)N[C@@H](CCC(=O)NCCCC[C@H](NC(=O)[C@H](CC(=O)O)NC(=O)[C@H](CO)NC(=O)[C@@H](NC(=O)[C@H](Cc1ccccc1)NC(=O)[C@@H](NC(=O)CNC(=O)[C@H](CCC(N)=O)NC(=O)C(C)(C)NC(=O)[C@@H](N)Cc1c[nH]cn1)[C@@H](C)O)[C@@H](C)O)C(=O)N[C@@H](CO)C(=O)N[C@@H](CCCCN)C(=O)N[C@@H](Cc1ccc(O)cc1)C(=O)N[C@@H](CC(C)C)C(=O)N[C@@H](CCC(=O)O)C(=O)N[C@@H](CCC(=O)O)C(=O)N[C@@H](CCCNC(=N)N)C(=O)N[C@@H](C)C(=O)N[C@@H](C)C(=O)N[C@@H](CCCCN)C(=O)N[C@@H](CCC(=O)O)C(=O)N[C@@H](Cc1ccccc1)C(=O)N[C@H](C(=O)N[C@@H](C)C(=O)N[C@@H](Cc1c[nH]c2ccccc12)C(=O)N[C@@H](CC(C)C)C(=O)N[C@@H](CCCCN)C(=O)N[C@@H](CCC(=O)O)C(=O)NCC(=O)NCC(=O)N1CCC[C@H]1C(=O)N[C@@H](CO)C(=O)N[C@@H](CO)C(=O)NCC(N)=O)C(C)C)C(=O)O)C(=O)O
B2: Compound 11 (peptide)
peptide: HXQGTFTSDKSKYLXEKRAKEFIXWLEAGGPSSG
HELM: PEPTIDE1{H.[Aib].Q.G.T.F.T.S.D.K.S.K.Y.L.E.E.K.R.A.K.E.F.I.E.W.L.E.A.G.G.P.S.S.G.[am]}|PEPTIDE2{[CCCCCCCCCCCCCCCC(=O)[*:2]].[gGlu].[gGlu]}$PEPTIDE1,PEPTIDE2,10:R3-3:R2$$$V2.0; N-terminus assumed
SMILES: CCCCCCCCCCCCCCCC(=O)N[C@@H](CCC(=O)N[C@@H](CCC(=O)NCCCC[C@H](NC(=O)[C@H](CC(=O)O)NC(=O)[C@H](CO)NC(=O)[C@@H](NC(=O)[C@H](Cc1ccccc1)NC(=O)[C@@H](NC(=O)CNC(=O)[C@H](CCC(N)=O)NC(=O)C(C)(C)NC(=O)[C@@H](N)Cc1c[nH]cn1)[C@@H](C)O)[C@@H](C)O)C(=O)N[C@@H](CO)C(=O)N[C@@H](CCCCN)C(=O)N[C@@H](Cc1ccc(O)cc1)C(=O)N[C@@H](CC(C)C)C(=O)N[C@@H](CCC(=O)O)C(=O)N[C@@H](CCC(=O)O)C(=O)N[C@@H](CCCCN)C(=O)N[C@@H](CCCNC(=N)N)C(=O)N[C@@H](C)C(=O)N[C@@H](CCCCN)C(=O)N[C@@H](CCC(=O)O)C(=O)N[C@@H](Cc1ccccc1)C(=O)N[C@H](C(=O)N[C@@H](CCC(=O)O)C(=O)N[C@@H](Cc1c[nH]c2ccccc12)C(=O)N[C@@H](CC(C)C)C(=O)N[C@@H](CCC(=O)O)C(=O)N[C@@H](C)C(=O)NCC(=O)NCC(=O)N1CCC[C@H]1C(=O)N[C@@H](CO)C(=O)N[C@@H](CO)C(=O)NCC(N)=O)[C@@H](C)CC)C(=O)O)C(=O)O
B3: Compound 15 (peptide)
peptide: B2 peptide with K10Y, K17R, R18A, I23V
HELM: PEPTIDE1{H.[Aib].Q.G.T.F.T.S.D.Y.S.K.Y.L.D.E.R.A.A.K.E.F.V.A.W.L.E.A.G.G.P.S.S.G.[am]}|PEPTIDE2{[CCCCCCCCCCCCCCCC(=O)[*:2]].[gGlu].[gGlu]}$PEPTIDE1,PEPTIDE2,20:R3-3:R2$$$V2.0; N-terminus assumed
SMILES: CCCCCCCCCCCCCCCC(=O)N[C@@H](CCC(=O)N[C@@H](CCC(=O)NCCCC[C@H](NC(=O)[C@H](C)NC(=O)[C@H](C)NC(=O)[C@H](CCCNC(=N)N)NC(=O)[C@H](CCC(=O)O)NC(=O)[C@H](CC(=O)O)NC(=O)[C@H](CC(C)C)NC(=O)[C@H](Cc1ccc(O)cc1)NC(=O)[C@H](CCCCN)NC(=O)[C@H](CO)NC(=O)[C@H](Cc1ccc(O)cc1)NC(=O)[C@H](CC(=O)O)NC(=O)[C@H](CO)NC(=O)[C@@H](NC(=O)[C@H](Cc1ccccc1)NC(=O)[C@@H](NC(=O)CNC(=O)[C@H](CCC(N)=O)NC(=O)C(C)(C)NC(=O)[C@@H](N)Cc1c[nH]cn1)[C@@H](C)O)[C@@H](C)O)C(=O)N[C@@H](CCC(=O)O)C(=O)N[C@@H](Cc1ccccc1)C(=O)N[C@H](C(=O)N[C@@H](C)C(=O)N[C@@H](Cc1c[nH]c2ccccc12)C(=O)N[C@@H](CC(C)C)C(=O)N[C@@H](CCC(=O)O)C(=O)N[C@@H](C)C(=O)NCC(=O)NCC(=O)N1CCC[C@H]1C(=O)N[C@@H](CO)C(=O)N[C@@H](CO)C(=O)NCC(N)=O)C(C)C)C(=O)O)C(=O)O
B4: Compound 16 (peptide)
peptide: B1 peptide with V23I, K27L
HELM: PEPTIDE1{H.[Aib].Q.G.T.F.T.S.D.K.S.K.Y.L.E.E.R.A.A.K.E.F.I.A.W.L.L.E.G.G.P.S.S.G.[am]}|PEPTIDE2{[CCCCCCCCCCCCCCCC(=O)[*:2]].[gGlu].[gGlu]}$PEPTIDE1,PEPTIDE2,10:R3-3:R2$$$V2.0; N-terminus assumed
SMILES: CCCCCCCCCCCCCCCC(=O)N[C@@H](CCC(=O)N[C@@H](CCC(=O)NCCCC[C@H](NC(=O)[C@H](CC(=O)O)NC(=O)[C@H](CO)NC(=O)[C@@H](NC(=O)[C@H](Cc1ccccc1)NC(=O)[C@@H](NC(=O)CNC(=O)[C@H](CCC(N)=O)NC(=O)C(C)(C)NC(=O)[C@@H](N)Cc1c[nH]cn1)[C@@H](C)O)[C@@H](C)O)C(=O)N[C@@H](CO)C(=O)N[C@@H](CCCCN)C(=O)N[C@@H](Cc1ccc(O)cc1)C(=O)N[C@@H](CC(C)C)C(=O)N[C@@H](CCC(=O)O)C(=O)N[C@@H](CCC(=O)O)C(=O)N[C@@H](CCCNC(=N)N)C(=O)N[C@@H](C)C(=O)N[C@@H](C)C(=O)N[C@@H](CCCCN)C(=O)N[C@@H](CCC(=O)O)C(=O)N[C@@H](Cc1ccccc1)C(=O)N[C@H](C(=O)N[C@@H](C)C(=O)N[C@@H](Cc1c[nH]c2ccccc12)C(=O)N[C@@H](CC(C)C)C(=O)N[C@@H](CC(C)C)C(=O)N[C@@H](CCC(=O)O)C(=O)NCC(=O)NCC(=O)N1CCC[C@H]1C(=O)N[C@@H](CO)C(=O)N[C@@H](CO)C(=O)NCC(N)=O)[C@@H](C)CC)C(=O)O)C(=O)O
B5: Compound 17 (peptide)
peptide: H[Aib]QGTFTSDK([AEEA-AEEA-γGlu-C18 diacid])SKYLEERAAKEFVAWLKEGGPSSG-NH2
modifications: N-terminus assumed
SMILES: CC(C)C[C@H](NC(=O)[C@H](Cc1c[nH]c2ccccc12)NC(=O)[C@H](C)NC(=O)[C@@H](NC(=O)[C@H](Cc1ccccc1)NC(=O)[C@H](CCC(=O)O)NC(=O)[C@H](CCCCN)NC(=O)[C@H](C)NC(=O)[C@H](C)NC(=O)[C@H](CCCNC(=N)N)NC(=O)[C@H](CCC(=O)O)NC(=O)[C@H](CCC(=O)O)NC(=O)[C@H](CC(C)C)NC(=O)[C@H](Cc1ccc(O)cc1)NC(=O)[C@H](CCCCN)NC(=O)[C@H](CO)NC(=O)[C@H](CCCCNC(=O)COCCOCCNC(=O)COCCOCCNC(=O)CC[C@H](NC(=O)CCCCCCCCCCCCCCCCC(=O)O)C(=O)O)NC(=O)[C@H](CC(=O)O)NC(=O)[C@H](CO)NC(=O)[C@@H](NC(=O)[C@H](Cc1ccccc1)NC(=O)[C@@H](NC(=O)CNC(=O)[C@H](CCC(N)=O)NC(=O)C(C)(C)NC(=O)[C@@H](N)Cc1c[nH]cn1)[C@@H](C)O)[C@@H](C)O)C(C)C)C(=O)N[C@@H](CCCCN)C(=O)N[C@@H](CCC(=O)O)C(=O)NCC(=O)NCC(=O)N1CCC[C@H]1C(=O)N[C@@H](CO)C(=O)N[C@@H](CO)C(=O)NCC(N)=O
B6: Compound 19 (peptide)
peptide: HXQGTFTSDKSKYLESERAKEFVEWLVKEGGPSSG
HELM: PEPTIDE1{H.[Aib].Q.G.T.F.T.S.D.K.S.K.Y.L.E.S.E.R.A.K.E.F.V.E.W.L.V.K.E.G.G.P.S.S.G.[am]}|PEPTIDE2{[CCCCCCCCCCCCCCCC(=O)[*:2]].[gGlu].[gGlu]}$PEPTIDE1,PEPTIDE2,10:R3-3:R2$$$V2.0; N-terminus assumed
SMILES: CCCCCCCCCCCCCCCC(=O)N[C@@H](CCC(=O)N[C@@H](CCC(=O)NCCCC[C@H](NC(=O)[C@H](CC(=O)O)NC(=O)[C@H](CO)NC(=O)[C@@H](NC(=O)[C@H](Cc1ccccc1)NC(=O)[C@@H](NC(=O)CNC(=O)[C@H](CCC(N)=O)NC(=O)C(C)(C)NC(=O)[C@@H](N)Cc1c[nH]cn1)[C@@H](C)O)[C@@H](C)O)C(=O)N[C@@H](CO)C(=O)N[C@@H](CCCCN)C(=O)N[C@@H](Cc1ccc(O)cc1)C(=O)N[C@@H](CC(C)C)C(=O)N[C@@H](CCC(=O)O)C(=O)N[C@@H](CO)C(=O)N[C@@H](CCC(=O)O)C(=O)N[C@@H](CCCNC(=N)N)C(=O)N[C@@H](C)C(=O)N[C@@H](CCCCN)C(=O)N[C@@H](CCC(=O)O)C(=O)N[C@@H](Cc1ccccc1)C(=O)N[C@H](C(=O)N[C@@H](CCC(=O)O)C(=O)N[C@@H](Cc1c[nH]c2ccccc12)C(=O)N[C@@H](CC(C)C)C(=O)N[C@H](C(=O)N[C@@H](CCCCN)C(=O)N[C@@H](CCC(=O)O)C(=O)NCC(=O)NCC(=O)N1CCC[C@H]1C(=O)N[C@@H](CO)C(=O)N[C@@H](CO)C(=O)NCC(N)=O)C(C)C)C(C)C)C(=O)O)C(=O)O

Target: human GLP-1 receptor (human, UniProt P43220 24-463)
Test: cell-based or functional assay

Binder	EC50 of GLP-1 receptor mediated cAMP production [nM]
B1	20.8
B2	3.05
H[Aib]QGTFTSDK([AEEA-AEEA-γGlu-C20 diacid])SKYLDERAAKEFVAWLEAGGPSSG-NH2 (not fully specified; printed as HAibQGTFTSDK***SKYLDERAAKEFVAWLEAGGPSSG-Amid) [Compound 13]	0.076
B3	0.58
B4	0.405
B5	2.21
B6	3.53
H[Aib]QGTFTSDK([γGlu-γGlu-Palmitoyl])SKYLEERAAKEFIAWLEGGPSSG-NH2 (not fully specified; printed as HAibQGTFTSDK*SKYLEERAAKEFIAWLEGGPSSG-Amid) [Compound 21]	0.83

Target: GC receptor
Test: cell-based or functional assay

Binder	EC50 of GC receptor mediated cAMP production [nM]
B1	0.1
B2	1.73
H[Aib]QGTFTSDK([AEEA-AEEA-γGlu-C20 diacid])SKYLDERAAKEFVAWLEAGGPSSG-NH2 (not fully specified; printed as HAibQGTFTSDK***SKYLDERAAKEFVAWLEAGGPSSG-Amid) [Compound 13]	0.033
B3	0.148
B4	0.092
B5	0.486
B6	6.25
H[Aib]QGTFTSDK([γGlu-γGlu-Palmitoyl])SKYLEERAAKEFIAWLEGGPSSG-NH2 (not fully specified; printed as HAibQGTFTSDK*SKYLEERAAKEFIAWLEGGPSSG-Amid) [Compound 21]	0.175
